For this data set, the system named is mouse SCN1A with an Arg(R)-to-TGA PTC (R1407X) and 3×FLAG tag. As to the kind of experiment: Rescue of full-length SCN1A protein expression, anti-FLAG Western blot, Flp-In-293 cells (FIGS. 37-39). The class given is cell-based, human. An excerpt: FIG. 37A is a Western blot depicting rescue of full-length SCN1A protein expression by a suppressor tRNA. Flp-In-293 cells were transfected with an expression construct containing mouse SCN1A with an Arg(R)-to-TGA PTC (R1407X) and a 3×FLAG tag peptide (DYKDHD-G-DYKDHD-I-DYKDDDDK) at the C-terminus (SEQ ID NO: 899) (“SCN1a (R1407*)”) and either (i) co-transfected with an expression construct containing the ArgTCA suppressor tRNA #115 (SEQ ID NO: 18) (“Arg>TGA #115”), or (ii) treated with ataluren at the indicated concentration, (iii) treated with gentamicin at the indication concentration, or (iv) treated with G418 at the indicated concentration. “SCN1a (w.t.)” indicates cells transfected with an expression construct containing wild-type mouse SCN1A and a 3×FLAG tag peptide at the C-terminus (SEQ ID NO: 898). Protein was isolated at 24 hours post transfection and SCN1A was detected using a monoclonal anti-FLAG M2 antibody. Molecular weights based on protein molecular weight markers are indicated to the left of the gel. The intensity of bands corresponding to the size of full-length SCN1A protein was measured using ImageJ and all intensity values were normalized to wild-type SCN1A protein (“SCN1a (w.t.)” lane). Cells co-transfected with expression vectors containing mutant SCN1A and the ArgTCA suppressor tRNA expressed greater than 70% of the full-length SCN1A expressed by cells transfected with an expression construct containing wild-type SCN1A.
FIG. 38A is a Western blot depicting rescue of full-length SCN1A protein expression by suppressor tRNAs. Flp-In-293 cells were co-transfected with (i) an expression construct containing mouse SCN1A with an Arginine-to-TGA PTC (R1407X) and a 3×FLAG tag peptide (DYKDHD-G-DYKDHD-I-DYKDDDDK) at the C-terminus (SEQ ID NO: 899) (“SCN1a (R1407*)”) and (ii) either the #104 ArgTCA suppressor tRNA (SEQ ID NO: 6) (“Sup #104”), the #106 ArgTCA suppressor tRNA (SEQ ID NO: 8) (“Sup #106”), or the ArgTCA suppressor tRNA #115 (SEQ ID NO: 18) (“Sup #115”). “SCN1a (w.t.)” indicates cells transfected with an expression construct containing wild-type mouse SCN1A and a 3×FLAG tag peptide at the C-terminus (SEQ ID NO: 898). Protein was isolated at 24 hours post transfection and SCN1A was detected using a monoclonal anti-FLAG M2 antibody. Molecular weights based on protein molecular weight markers are indicated to the left of the gel. The intensity of bands corresponding to the size of full-length SCN1A protein was measured using ImageJ and all intensity values were normalized to wild-type SCN1A protein (“SCN1a (w.t.)” lane). Cells co-transfected with expression vectors containing mutant SCN1A and the ArgTCA suppressor tRNA expressed greater than 30% (Sup #104), greater than 60% (Sup #106), or greater than 70% (Sup #115) of the full-length SCN1A expressed by cells transfected with an expression construct containing wild-type SCN1A.
FIG. 39A is a Western blot depicting rescue of full-length SCN1A protein expression by a suppressor tRNA. Flp-In-293 cells were cultured in 6-well cell culture plates and co-transfected with (i) an expression construct containing mouse SCN1A with an Arginine-to-TGA PTC (R1407X) and a 3×FLAG tag peptide (DYKDHD-G-DYKDHD-I-DYKDDDDK) at the C-terminus (SEQ ID NO: 899) (“SCN1a (R1407*)”) and (ii) the ArgTCA suppressor tRNA #115 (SEQ ID NO: 18) (“Arg>TGA #115”) at the indicated concentrations. 1× indicates 400 ng of the ArgTCA suppressor tRNA construct per well, 0.3× indicates 133 ng of the ArgTCA suppressor tRNA construct per well, 0.1× indicates 40 ng of the ArgTCA suppressor tRNA construct per well, and 0.03× indicates 13 ng of the ArgTCA suppressor tRNA construct per well. “SCN1a (w.t.)” indicates cells transfected with an expression construct containing wild-type mouse SCN1A and a 3×FLAG tag peptide at the C-terminus (SEQ ID NO: 898). Protein was isolated at 24 hours post transfection and SCN1A was detected using a monoclonal anti-FLAG M2 antibody. […]
On the technique in general: Immunoblotting shows a protein as a band on a membrane.

Entries after “also recorded” stand apart in the source; their conditions may differ.

B1: tRNA-Arg-TCT-2-1-TCA-SUP_no intron (nucleic acid)
chain: GGCTCCGTGGCGCAATGGATAGCGCATTGGACTTCAAATTCAAAGGTTCCGGGTTCGAGTCCCGGCGGAGTCG
modifications: chemistry not fully specified
With B1, the “rescue of full-length SCN1A protein expression over dose range” value (13 to 400 ng suppressor tRNA construct per well, 6-well plate (FIG. 39)) is on record as “able to rescue full-length SCN1A protein expression over a broad dose range”. Moreover, the “full-length SCN1A expressed, relative to cells transfected with wild-type SCN1A construct” value (Flp-In-293, 24 hours post transfection, Western blot band intensity (ImageJ) normalized to wild-type SCN1A) is recorded as “greater than 70%”. Moreover, where the note is “Flp-In-293, SCN1A R1407X-3×FLAG, Western blot, 24 hours post transfection”, the “rescue of full-length SCN1A protein expression” value is listed as “able to rescue full-length SCN1A protein expression; also recorded: rescued full-length SCN1A protein expression”.

For the origin of these results see patent publication US12697350B2, “Methods and compositions for treating a premature termination codon-mediated disorder” (Tevard Biosciences, Inc., priority 2019, dated 2026).
